Results on one substance are retold here after patent US6027911.

Assay [1] addresses Met-Arg-Human Proinsulin Analog (B28 Lys, B29 Pro) (human) (UniProt P01308).
Assay [2] addresses Met-Asp-human growth hormone (human) (UniProt P01241).

With “bovine dipeptidylaminopeptidase 1 (enzyme)”, the extent of conversion of MR-KPB-hPI to KPB-hPI (reverse phase HPLC) in assay [1] came to 98%. The same substance had a human growth hormone (hGH) conversion yield (reverse phase chromatography) in assay [2] of 37%.
